Earlier results as cited in PMC4310935.

Molecular target: GLP-1 receptor (Mus musculus) (UniProt O35659)
UniProt O35659, sequence (O35659 22-463): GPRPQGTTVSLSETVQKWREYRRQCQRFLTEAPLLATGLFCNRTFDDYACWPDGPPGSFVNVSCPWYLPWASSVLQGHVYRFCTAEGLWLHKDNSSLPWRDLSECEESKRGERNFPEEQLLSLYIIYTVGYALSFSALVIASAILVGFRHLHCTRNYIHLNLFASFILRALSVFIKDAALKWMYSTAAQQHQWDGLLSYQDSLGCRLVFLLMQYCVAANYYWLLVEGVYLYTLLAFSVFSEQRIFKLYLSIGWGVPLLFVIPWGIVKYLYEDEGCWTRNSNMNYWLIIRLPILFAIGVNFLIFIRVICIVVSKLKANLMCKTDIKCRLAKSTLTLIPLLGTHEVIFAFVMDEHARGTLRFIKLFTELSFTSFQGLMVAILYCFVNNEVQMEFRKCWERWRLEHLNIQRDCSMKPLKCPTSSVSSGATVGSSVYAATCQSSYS

GLP-1, sequence (P55095 98-127): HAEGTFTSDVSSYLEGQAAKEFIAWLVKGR

Kd: 0.5 nM
Substance: GLP-1 (from UniProt P55095)
